Among the data in patent US20170355992A1 are emission percentage (FRET) values, retold here.

The target of experiment [1] is prothrombin with an Alexa532 on the 271 cleavage site that was attached by mutating the arginine to a cysteine (UniProt P00734). The experiment can be described thus: FRET, Alexa488-FVa donor and Alexa532 prothrombin acceptor, buffer control.
Experiment [2] has the same target. The experiment can be described thus: FRET, Alexa488-FVa donor and Alexa532 prothrombin acceptor, with 2.5 µM RNA aptamer T18.3.

Consider “FVa with Alexa488 on the 539 residue (from UniProt P12259 29-2224)”, for which the emission percentage (FRET) worked out at 16.3% in experiment [1] and 17.5% in experiment [2].
